# Assay results published in patent US20200181278A1 (MITSUBISHI TANABE PHARMA, published 2020).
# T1: mouse CD138 His (mouse, UniProt P18828 23-255, limits assumed)
# T1 construct: also called mCD138; not shown: His tag
# T1 sequence: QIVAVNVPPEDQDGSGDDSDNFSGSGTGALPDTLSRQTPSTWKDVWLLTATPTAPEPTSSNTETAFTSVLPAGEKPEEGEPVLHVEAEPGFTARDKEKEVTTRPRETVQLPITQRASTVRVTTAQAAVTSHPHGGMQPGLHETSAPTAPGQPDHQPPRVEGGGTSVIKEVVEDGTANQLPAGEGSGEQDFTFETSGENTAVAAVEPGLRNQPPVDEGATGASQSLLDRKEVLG
# Target: T1, mouse CD138 His
# Test: SPR, mouse CD138 His immobilised, antibody as analyte
# Protocol: Murine IgGs were purified from the hybridoma supernatants and the IgGs were subject to SPR (surface plasmon resonance) for kinetic binding measurements. […] […] KDs were measured using bivalent analyte fit.
row,Binder,binding result
1,"F12P7G11 (antibody, V domains shown, Murine IgG purified from hybridoma supernatant) VH: QVQLQQSGAELARPGASVKLSCKASGYTFSSHWMQWVKQRPGQGLEWIGAIYPGDGDTRFTQKFKGKATLTADKSSNTAYMQLSSLASEDSAVYYCARGIYYDRSRAMDYWGQGTSVTVSS VL: QIVLSQSPAILSASPGEKVTMTCRASSSVNYMHWYQQKPGSSPKHWIYATSYLASGVPARFSGSGSGTSYSLTISRVEAEDAATYYCQQWSSDPLTFGAGTKLELKR",no binding
2,"F11AP11E5 (antibody, V domains shown, Murine IgG purified from hybridoma supernatant) VH: QVQLQQSGAELVKPGASVKLSCKASGYTFTNYYMYWVKQRPGQGLEWIGEINPGNGGTNFNEKFKNKATLTVDKSSSTAYMQLSSLTSEDSAVYYCTTRFAYWGQGTLVIVSA VL: DVVMTQTPLSLSVTIGQPASISCKSGQSLLYSNGKTYLTWLQQRPGQAPKLLMYQVSKLDPGIPDRFSGSGSETDFTLKISRVEAEDLGVYYCLQNTYYPHTFGAGTKLELKR",no binding
